Laboratory results taken from PMC3392113 (Human Molecular Genetics, 2012).

Target: the molecule itself
Experiment: SDS-PAGE

B1: MBP-ΔN597 (human DISC1 amino acids 326-597 fused to maltose-binding protein) (domain or fragment, UniProt Q9NRI5 326-597, looked up)
chain: WDTLLRKWEPVLRDCLLRNRRQMEVISLRLKLQKLQEDAVENDDYDKAETLQQRLEDLEQEKISLHFQLPSRQPALSSFLGHLAAQVQAALRRGATQQASGDDTHTPLRMEPRLLEPTAQDSLHVSITRRDWLLQEKQQLQKEIEALQARMFVLEAKDQQLRREIEEQEQQLQWQGCDLTPLVGQLSLGQLQEVSKALQDTLASAGQIPFHAEPPETIRSLQERIKSLNLSLKEITTKVCMSEKFCSTLRKKVNDIETQLPALLEAKMHAIS
stoichiometry N: 2
